Two molecules from patent US20170320966A1 (INDUSTRIAL TECHNOLOGY RESEARCH INSTITUTE, published 2017) can be followed below.

As a reminder, the koff is the first-order rate constant of dissociation. Low readings indicate slow dissociation, high ones fast dissociation. In general, kon refers to a measure of how fast the partners come together. Read a high kon as fast association.

Numbering of substitutions follows the chain as printed.

Assay [1] concerns the target T1, human CD34 protein (Fc tag) (human, UniProt P28906 32-290).
T1 construct: Bought reagent (Sino Biological); also called recombinant human CD34 protein; immobilized human CD34 protein; not shown: Fc tag
T1 sequence (looked up): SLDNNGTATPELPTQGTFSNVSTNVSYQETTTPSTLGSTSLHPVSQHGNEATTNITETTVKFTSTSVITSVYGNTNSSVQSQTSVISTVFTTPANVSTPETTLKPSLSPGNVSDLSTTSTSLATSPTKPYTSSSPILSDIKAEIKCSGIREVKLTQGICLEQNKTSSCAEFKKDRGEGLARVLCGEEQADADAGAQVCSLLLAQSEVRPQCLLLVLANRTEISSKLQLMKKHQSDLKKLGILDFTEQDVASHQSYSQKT
In words: SPR (Biacore X), CD34-Fc immobilized on chip, antibody injected, bivalent fit. How it is done: (§1) FIGS. 8A and 8B show the surface plasma resonance (SPR) analysis of interaction between human CD34 protein and chimeric QBEND/10 (A) or humanized QBEND/10 (B). Each antibody was injected and flowed over a surface chip with immobilized human CD34 protein at a flow rate of 30 μl/min. The resulting SPR sensorgrams were analyzed to determine the association/dissociation rate constants using the analysis program (BIAevaluation 3.2) provided by the manufacturer.
(§2) The binding kinetics of QBEND/10 antibodies to the human CD34 protein (Fc tag) (Sino Biological Incorporation, Beijing, China) were measured by performing the Biacore system (Biacore X, GE Healthcare, South Logan, Utah, USA) in the electrophoresis running buffer HBS-EP (10 mM HEPES, pH 7.4; 150 mM NaCl; 3 mM EDTA; 0.005% surfactant P20). In Brief, human CD34 protein was immobilized onto a CMS sensor chip via amine coupling to a level of 1200 response units (RU), and purified antibodies with different concentrations were injected at a flow rate of 30 μl/min. The surface was regenerated by injection of 15 μl of 10 mM glycine-HCl, pH 2.5. Then, the sensorgrams obtained at each concentration were evaluated by the program BIA Evaluation 3.2 (GE Healthcare, South Logan, Utah, USA). The binding data were fitted with a 2:1 (bivalent) binding model to calculate the affinity constant KD, which was defined as the ratio of dissociation rate (koff)/association rate (kₒₙ).
(SPR reads the build-up and loss of mass on a sensor chip optically.)

Assay [2] addresses T1, human CD34 protein (Fc tag). In words: SPR (Biacore X), CD34-Fc immobilized on chip. How it is done:
as §1
as §2, with “The binding data were fitted with a 2:1 (bivalent) binding model to calculate the affinity constant KD, which was defined as the ratio of dissociation rate (koff)/association rate (kₒₙ).” left out

B1: chimeric QBEND/10 (antibody, V domains shown)
VH: QVQLEQSGPELVKPGASVKMSCKASGYTFTSYVIHWVKQKPGQGLEWLGYTNPYNDVTKYNEKFKFKATLTSDKQSTTAYMEFSSLTSEDSAVYYCARYGGLWLYAMDYWGQGTSVTVSS
VL: QLVLTQSSSASFSLGASAKLTCTLSSQHRTFTIEWYQQQPLKPPKYVMELRKDGSHSTGDGIPDRFSGSSSGADRYLSISNIQPEDEAIYICGVGNTIKEQFVYVFGGGTKVTVL
notes: Expressed in NS0 cells; also called chimeric QBEND/10 antibody; parental antibody
For the molecule B1, in assay [1], the Kd stood at 14.7 nM, the koff came out at 0.000262 s⁻¹ and the kon was 17800 M⁻¹ s⁻¹.

B2: humanized QBEND/10 (antibody, V domains shown)
VH: B1 VH with E5V, P9A, K74T, Q75S
VL: B1 VL with S8P, L41E, T58K, N81S, G108T
notes: Expressed in NS0 cells; also called resurfaced QBEND/10; humanized QBEND/10 antibody
Regarding B2, in assay [2], the “fold increase of kon against chimeric QBEND/10” value is 2 fold. Besides, in assay [1], the Kd was determined as 7.34 nM, the off-rate (koff) came to 0.000268 s⁻¹ and the kon came out at 36600 M⁻¹ s⁻¹.
